The values below come from publication PMC6300691, “Enhancement of Heat Stability and Kinetic Parameters of the Maize Endosperm ADP-Glucose Pyrophosphorylase by Mutagenesis of Amino Acids in the Small Subunit With High B Factors” (Frontiers in Plant Science, 2018).

Series [1] deals with T1, MP + SH2-E.
T1 construct: chimeric small subunit MP (maize 198 / potato 277 amino acids) with SH2-E
Description: Initial-rate assay without 3-PGA, ATP and G-1-P both varied (0.01-10 mM and 0.1-25 mM), global fit to a sequential mechanism. It counts as biochemical. The following applies: read-out: G-1-P Km (absence of 3-PGA).

In series [2] the test system is T2, MP.
T2 construct: small subunit of first 198 amino acids of maize BT2 and last 277 of potato tuber small subunit, with wild type SH2
The series is described as above. In kind it is biochemical. To be noted: read-out: G-1-P Km (absence of 3-PGA).

For series [3], the system named is maize endosperm AGPase. Description: Pi inhibition in the absence of 3-PGA. In kind it is biochemical. To be noted: for α / β: absence of 3-PGA. The text has this:
(§1) (2) v=Vm(S/Ks+(βSI)/(αKiKs))/(1+S/Ks+I/Ki+SI/αKiKs)P-MT
(§2) (3) v=Vm(S/Ks)/(1+S/Ks+I/Ki+SI/αKiKs)L-MT

For series [4], the system named is maize endosperm AGPase. Description: Pi inhibition in the presence of 3-PGA. In kind it is biochemical.
Description: as §1, §2

For series [5], the system named is maize endosperm AGPase. Description: Kinetic values in the absence of 3-PGA. It counts as biochemical. An excerpt:
(1) v=VAB/(KiaKmb+KmbA+KmaB+AB

Series [6] deals with maize endosperm AGPase. Description: 3-PGA activation constant (Ka), Vmin and Vmax. In kind it is biochemical. To be noted: change in activity from Vmin to total velocity with 3-PGA; substrates 2 mM. An excerpt:
All reactions were developed as above.

For series [7], the system named is maize endosperm AGPase. Description: Catalytic activity at 37 and 55°C (end point PPi assay). In kind it is biochemical. As to the method:
Reactions proceeded for 2, 4, 6, 8, 10, and 15 min and were terminated by boiling. Reaction mixes (1300 μl) were pre-warmed to 37°C or 55°C and the assay was started with the addition of the enzyme. Assay time points (200 μl) were removed at the appropriate time and boiled for 2 min. At 37°C all reactions were linear for 15 min; however, at 55°C rates were linear for a shorter duration. A rate was only calculated if the reactions were linear for at least 10 min.
The amount of PPi produced in the reaction was coupled to a decrease in NADH concentration. Coupling reagent contained 25 mM imidazole pH 7.4, 4 mM MgCl2, 1 mM EDTA, 0.2 mM NADH, 0.725 U aldolase, 0.4 U triose phosphate isomerase, 0.6 U glycerophosphate dehydrogenase, 1 mM fructose 6-phosphate and 0.8 μg purified PPi-PFK per reaction. Blank samples contained complete reaction mixtures minus the enzyme. Change in absorbance between the blank and the reaction was used to calculate the amount of PPi produced. All reactions were linear with time and enzyme concentration.

Series [8] has as its system E. coli AC70R1-504. To be noted: 2015, cited from earlier work.
For series [9], the system named is maize endosperm AGPase. The following applies: cited from earlier work.
The subject of series [10] is maize endosperm AGPase. To be noted: ref Boehlein et al., 2015; cited from earlier work.
Series [11] addresses maize endosperm AGPase. Details: method as in Georgelis et al., 2009; Boehlein et al., 2015. The following applies: ref Georgelis et al., 2009; Boehlein et al., 2015; cited from earlier work.
[12] abbreviates: growth at 37 and 42°C, SH2 variants, ref Boehlein et al.

Like-named read-outs stand apart in the source and are kept apart here.

In the case of `O=P(O)(O)O[C@H]1O[C@H](CO)[C@@H](O)[C@H](O)[C@H]1O` [G-1-P, glucose-1-phosphate], the Km (commonly the substrate concentration at which the rate is half of its maximum) in series [1] worked out at 0.09 ± 0.008 mM; in [2] it was 11.9 ± 3 mM.

B1: wt: wild type maize endosperm AGPase: SH2 large subunit with BT2 small subunit, expressed in E. coli (protein, UniProt P55241 46-516; P55241 46-516, looked up)
Glucose-1-phosphate … 1: FGGRVAATTQCILTSDACPETLHSQTQSSRKNYADANRVSAIILGGGTGSQLFPLTSTRATPAVPVGGCYRLIDIPMSNCFNSGINKIFVMSQFNSTSLNRHIHRTYLEGGINFADGSVQVLAATQMPEEPAGWFQGTADSIRKFIWVLEDYYSHKSIDNIVILSGDQLYRMNYMELVQKHVEDDADITISCAPVDESRASKNGLVKIDHTGRVLQFFEKPKGADLNSMRVETNFLSYAIDDAQKYPYLASMGIYVFKKDALLDLLKSKYTQLHDFGSEILPRAVLDHSVQACIFTGYWEDVGTIKSFFDANLALTEQPSKFDFYDPKTPFFTAPRCLPPTQLDKCKMKYAFISDGCLLRECNIEHSVIGVCSRVSSGCELKDSVMMGADTYETEEEASKLLLAGKVPVGIGRNTKIRNCIIDMNARIGKNVVITNSKGIQEADHPEEGYYIRSGIVVILKNATINDGSVI
Glucose-1-phosphate … 2: FGGRVAATTQCILTSDACPETLHSQTQSSRKNYADANRVSAIILGGGTGSQLFPLTSTRATPAVPVGGCYRLIDIPMSNCFNSGINKIFVMSQFNSTSLNRHIHRTYLEGGINFADGSVQVLAATQMPEEPAGWFQGTADSIRKFIWVLEDYYSHKSIDNIVILSGDQLYRMNYMELVQKHVEDDADITISCAPVDESRASKNGLVKIDHTGRVLQFFEKPKGADLNSMRVETNFLSYAIDDAQKYPYLASMGIYVFKKDALLDLLKSKYTQLHDFGSEILPRAVLDHSVQACIFTGYWEDVGTIKSFFDANLALTEQPSKFDFYDPKTPFFTAPRCLPPTQLDKCKMKYAFISDGCLLRECNIEHSVIGVCSRVSSGCELKDSVMMGADTYETEEEASKLLLAGKVPVGIGRNTKIRNCIIDMNARIGKNVVITNSKGIQEADHPEEGYYIRSGIVVILKNATINDGSVI
modifications: expressed in E. coli
Regarding B1, in series [3], the “Ki for Pi higher in the absence of 3PGA compared to the presence of 3PGA” value was 5–10 fold. Also, the α in series [3] (varied substrate ATP) was found to be 0.063 ± 0.034; in [3] (varied substrate G-1-P), 0.095 ± 0.065; in [4] (varied substrate ATP) it was 4.61 ± 0.07; in [4] (varied substrate G-1-P), 0.90 ± 0.012. Further, the β in series [3] (varied substrate ATP) came out at 0.52 ± 0.17; in series [3] (varied substrate G-1-P), 0.92 ± 0.31; in series [4] (varied substrate ATP) it was 0.83 ± 0.037; in series [4] (varied substrate G-1-P) it was 0.52 ± 0.023. In addition, the “reduction of the Km values of both substrates by binding of 3PGA” value in [5] (Km without 3PGA versus with 3PGA) was “over 50 fold”. Besides, the Michaelis-Menten constant (Km) in series [5] (absence of 3-PGA, read-out: ATP Km) was roughly 4 mM; in [5] (read-out: G-1-P Km (absence of 3-PGA)) it was 3 mM. In series [6], the Vmax is 6352 ± 540. For the same molecule, the “Activity at 37°C” value in [7] (37°C, 5 mM ATP, 2 mM G-1-P, 2.5 mM 3-PGA, purified enzyme from E. coli) came out at 5415 ± 268. In addition, the “activity at 55°C (in words)” value in [7] (55°C) is listed as “not active”.

B2: K445R: SH2 large subunit variant K445R (protein, UniProt P55241 46-516, looked up, variant K445R)
Glucose-1-phosphate …: FGGRVAATTQCILTSDACPETLHSQTQSSRKNYADANRVSAIILGGGTGSQLFPLTSTRATPAVPVGGCYRLIDIPMSNCFNSGINKIFVMSQFNSTSLNRHIHRTYLEGGINFADGSVQVLAATQMPEEPAGWFQGTADSIRKFIWVLEDYYSHKSIDNIVILSGDQLYRMNYMELVQKHVEDDADITISCAPVDESRASKNGLVKIDHTGRVLQFFEKPKGADLNSMRVETNFLSYAIDDAQKYPYLASMGIYVFKKDALLDLLKSKYTQLHDFGSEILPRAVLDHSVQACIFTGYWEDVGTIKSFFDANLALTEQPSKFDFYDPKTPFFTAPRCLPPTQLDKCKMKYAFISDGCLLRECNIEHSVIGVCSRVSSGCELKDSVMMGADTYETEEEASRLLLAGKVPVGIGRNTKIRNCIIDMNARIGKNVVITNSKGIQEADHPEEGYYIRSGIVVILKNATINDGSVI
Turning to B2, the “glycogen staining (in words)” value in [8] (setting [12]) was “Stained darker at 37 and 42 °C”.

B3: E438Q: SH2 large subunit variant E438Q (protein, UniProt P55241 46-516, looked up, variant E438Q)
Glucose-1-phosphate …: FGGRVAATTQCILTSDACPETLHSQTQSSRKNYADANRVSAIILGGGTGSQLFPLTSTRATPAVPVGGCYRLIDIPMSNCFNSGINKIFVMSQFNSTSLNRHIHRTYLEGGINFADGSVQVLAATQMPEEPAGWFQGTADSIRKFIWVLEDYYSHKSIDNIVILSGDQLYRMNYMELVQKHVEDDADITISCAPVDESRASKNGLVKIDHTGRVLQFFEKPKGADLNSMRVETNFLSYAIDDAQKYPYLASMGIYVFKKDALLDLLKSKYTQLHDFGSEILPRAVLDHSVQACIFTGYWEDVGTIKSFFDANLALTEQPSKFDFYDPKTPFFTAPRCLPPTQLDKCKMKYAFISDGCLLRECNIEHSVIGVCSRVSSGCELKDSVMMGADTYQTEEEASKLLLAGKVPVGIGRNTKIRNCIIDMNARIGKNVVITNSKGIQEADHPEEGYYIRSGIVVILKNATINDGSVI
Regarding B3, the “effect on 3-PGA Ka (in words)” value in series [9] (ref Georgelis et al., 2009) is given as “Did not alter 3-PGA Ka”.

B4: S444R: SH2 large subunit variant S444R (protein, UniProt P55241 46-516, looked up, variant S444R)
Glucose-1-phosphate …: FGGRVAATTQCILTSDACPETLHSQTQSSRKNYADANRVSAIILGGGTGSQLFPLTSTRATPAVPVGGCYRLIDIPMSNCFNSGINKIFVMSQFNSTSLNRHIHRTYLEGGINFADGSVQVLAATQMPEEPAGWFQGTADSIRKFIWVLEDYYSHKSIDNIVILSGDQLYRMNYMELVQKHVEDDADITISCAPVDESRASKNGLVKIDHTGRVLQFFEKPKGADLNSMRVETNFLSYAIDDAQKYPYLASMGIYVFKKDALLDLLKSKYTQLHDFGSEILPRAVLDHSVQACIFTGYWEDVGTIKSFFDANLALTEQPSKFDFYDPKTPFFTAPRCLPPTQLDKCKMKYAFISDGCLLRECNIEHSVIGVCSRVSSGCELKDSVMMGADTYETEEEARKLLLAGKVPVGIGRNTKIRNCIIDMNARIGKNVVITNSKGIQEADHPEEGYYIRSGIVVILKNATINDGSVI
As for B4, the “activity at 37° (in words)” value in [10] is “had higher activity at 37°”. For the same molecule, the “glycogen staining (in words)” value in series [8] (setting [12]) is “Stained darker at 37 and 42°”.

B5: P372A: SH2 large subunit variant P372A (protein, UniProt P55241 46-516, looked up, variant P372A)
Glucose-1-phosphate …: FGGRVAATTQCILTSDACPETLHSQTQSSRKNYADANRVSAIILGGGTGSQLFPLTSTRATPAVPVGGCYRLIDIPMSNCFNSGINKIFVMSQFNSTSLNRHIHRTYLEGGINFADGSVQVLAATQMPEEPAGWFQGTADSIRKFIWVLEDYYSHKSIDNIVILSGDQLYRMNYMELVQKHVEDDADITISCAPVDESRASKNGLVKIDHTGRVLQFFEKPKGADLNSMRVETNFLSYAIDDAQKYPYLASMGIYVFKKDALLDLLKSKYTQLHDFGSEILPRAVLDHSVQACIFTGYWEDVGTIKSFFDANLALTEQPSKFDFYDAKTPFFTAPRCLPPTQLDKCKMKYAFISDGCLLRECNIEHSVIGVCSRVSSGCELKDSVMMGADTYETEEEASKLLLAGKVPVGIGRNTKIRNCIIDMNARIGKNVVITNSKGIQEADHPEEGYYIRSGIVVILKNATINDGSVI
Turning to B5, the “effect on Ki for phosphate (in words)” value in series [11] is “decreased Ki for phosphate”. The “glycogen staining (in words)” value in series [8] (ref Georgelis et al., 2009, Boehlein et al.) is on record as “reduced glycogen staining”. Also, the “effect on 3-PGA Ka (in words)” value in series [9] (ref Georgelis et al., 2009, Boehlein et al., 2015) is recorded as “Increased 3-PGA Ka”.

B6: S444A: SH2 large subunit variant S444A (protein, UniProt P55241 46-516, looked up, variant S444A)
Glucose-1-phosphate …: FGGRVAATTQCILTSDACPETLHSQTQSSRKNYADANRVSAIILGGGTGSQLFPLTSTRATPAVPVGGCYRLIDIPMSNCFNSGINKIFVMSQFNSTSLNRHIHRTYLEGGINFADGSVQVLAATQMPEEPAGWFQGTADSIRKFIWVLEDYYSHKSIDNIVILSGDQLYRMNYMELVQKHVEDDADITISCAPVDESRASKNGLVKIDHTGRVLQFFEKPKGADLNSMRVETNFLSYAIDDAQKYPYLASMGIYVFKKDALLDLLKSKYTQLHDFGSEILPRAVLDHSVQACIFTGYWEDVGTIKSFFDANLALTEQPSKFDFYDPKTPFFTAPRCLPPTQLDKCKMKYAFISDGCLLRECNIEHSVIGVCSRVSSGCELKDSVMMGADTYETEEEAAKLLLAGKVPVGIGRNTKIRNCIIDMNARIGKNVVITNSKGIQEADHPEEGYYIRSGIVVILKNATINDGSVI
Regarding B6, the “effect on 3-PGA Ka (in words)” value in [9] (ref Boehlein et al., 2014) is reported as “Did not alter 3-PGA Ka”.
